According to patent publication US12018084B2, “Anti-CXCR2 antibodies and uses thereof” (Cephalon LLC, priority 2018, dated 2024):
Read-outs that look alike come from different tables or passages of the source.

T1: native human CXCR2 expressed by human neutrophils (Homo sapiens, UniProt P25025)
T1 construct: native human CXCR2 expressed by human neutrophils; endogenous in cells; host or cells: human peripheral blood cells (buffy coat, PBMC-enriched fractions, anticoagulated blood): neutrophils, monocytes
T1 sequence (P25025 1-360): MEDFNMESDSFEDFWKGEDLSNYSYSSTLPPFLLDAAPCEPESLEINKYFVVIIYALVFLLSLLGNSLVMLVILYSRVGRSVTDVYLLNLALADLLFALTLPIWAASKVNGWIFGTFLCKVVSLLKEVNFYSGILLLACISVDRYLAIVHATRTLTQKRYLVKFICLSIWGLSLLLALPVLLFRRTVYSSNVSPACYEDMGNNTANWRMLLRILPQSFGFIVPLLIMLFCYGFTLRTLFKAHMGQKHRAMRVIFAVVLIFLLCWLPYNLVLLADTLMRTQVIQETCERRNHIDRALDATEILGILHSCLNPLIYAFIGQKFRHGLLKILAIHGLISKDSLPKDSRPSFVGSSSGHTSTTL

T2: Human CXCR2 (Homo sapiens, UniProt P25025)
T2 sequence (P25025 1-360): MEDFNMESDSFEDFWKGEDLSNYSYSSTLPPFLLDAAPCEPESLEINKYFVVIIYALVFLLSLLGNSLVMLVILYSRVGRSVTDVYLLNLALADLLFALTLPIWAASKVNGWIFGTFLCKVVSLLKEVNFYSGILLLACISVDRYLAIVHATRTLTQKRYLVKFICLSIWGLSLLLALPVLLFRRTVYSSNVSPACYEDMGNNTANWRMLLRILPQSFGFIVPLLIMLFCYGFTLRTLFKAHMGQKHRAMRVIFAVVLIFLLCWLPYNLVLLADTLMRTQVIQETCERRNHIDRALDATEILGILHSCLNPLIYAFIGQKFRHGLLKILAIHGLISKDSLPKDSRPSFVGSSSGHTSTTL

B1: BKO-4A8: parental anti-CXCR2 antibody, VH SEQ ID NO: 17, VL SEQ ID NO: 18 (antibody, V domains shown)
VH: EVQLLESGGGLVQPGGSLRLSCAASGFTFSSSTMSWVRQAPGKGLEWVSAISGRGRNTYYADSVKGRFTISRDNSRNTLYLQMNSLRAEDTAVYYCAIQMGYWGQGILVTVSS
VL: QSALTQPPSASGSPGQSVTISCIGTSSDVGGYNYVSWYQQHPDKAPKLMIYEVNKRPSGVPDRFSGSKSGNTASLTVSGLQAEDEADYYCSSYAGNNNFGVFGGGTKLTVL
modifications: BKO_4A8_VH; BKO_4A8_VL
B2: 101c: VH SEQ ID NO: 108, VL SEQ ID NO: 110; renamed BKO-4A8-101c (antibody, V domains shown)
VH: EVQLLESGGGLVQPGGSLRLSCAASGFTFSSSTQSWVRQPPGKGLEWVSAISGRGRSTYYADSVKGRFTISRDNSKNTLYLQMNSLRAEDTAVYYCAIQAGYWGQGILVTVSS
VL: QSALTQPPSASGSPGQSVTISCIGTSSDVGGYNYVSWYQQHPGKAPKLMIYEVSKRPSGVPDRFSGSKSGNTASLTVSGLQAEDEADYYCSSYAGSNNFGVFGGGTKLTVL
modifications: 4A8 VH Variant 101 M34Q_A40P_N56S_R75K_M96A; 4A8 VL variant c D41G_N52S_N94S
notes: renamed BKO-4A8-101c

Key:
[1] = molecular target: T1, native human CXCR2 expressed by human neutrophils; assay: Flow cytometry binding to human blood cells (neutrophils, monocytes, PBMC preparations)
Procedure: Whole human buffy coat, PBMC enriched fractions prepared from human peripheral blood buffy coat or cynomolgus monkey whole blood was used for analysis of antibody binding activity by flow cytometry. Briefly, blood was untreated or diluted 1:1 in sterile filtered room temperature phosphate-buffered saline (PBS). 30 mL samples were layered over 15 mL Lymphoprep™ (Stem Cell Technologies, cat #07851). Peripheral blood mononuclear cells (PBMC) were enriched by room temperature centrifugation at 700 g for 30 minutes with no braking. The PBMC layer was isolated and cells washed in PBS containing 2 mM EDTA with low speed centrifugation at 200 g, to remove platelet contamination. Whole blood or PBMC enriched cell fractions were resuspended in red blood cell lysing solution (BioLegend, 420301). Viable cell counts were determined and cells resuspended at 1×10^7 cells per mL in FACS buffer (1×PBS+0.5% (w/v) BSA+2 mM EDTA pH 7.2).
Flow cytometry binding assays using whole blood or PBMC enriched preparations: Binding assays to detect CXCR2 on blood neutrophil populations using test antibodies were performed essentially as described for assays using transiently transfected Expi293F™ cells. Binding of antibodies to human CXCR2 on the surface of the neutrophils was measured using anti-CXCR2 antibody directly conjugated to the fluorophore allophycocyanin (APC). Matched isotype control antibodies were included for comparison. Cells were incubated with lineage specific antibodies and 2 μg/ml of APC conjugated anti-CXCR2 antibody or isotype control prepared in ice cold 3% BSA/PBS for a minimum of 30 minutes at 4° C. The commercial anti-CXCR2 antibody (clone 48331 (R&D Systems FAB331A)) was used as a positive control. Neutrophil populations were identified by characteristic granularity and size, and positive binding of commercially available antibodies against CD10 (Biolegend, clone H110a, catalogue number 312204). Cells were washed and fixed (BioLegend Fixation buffer, 420801) prior to analysis. The level of fluorescence on the cell surface was measured by flow cytometry. Using this method, test anti-CXCR2 antibodies were detected binding neutrophils from both human and cynomolgus monkey.
To further characterize the anti-CXCR2 antibody BKO-4A8-101c, the ability to bind CXCR2 on neutrophils was tested on anticoagulated human blood. Binding was measured using BKO-4A8-101c directly conjugated to fluorophore APC. Matched isotype control antibodies conjugated to APC were included for comparison. Cells were incubated with lineage-specific antibodies and 2 μg/mL of APC conjugated anti-CXCR2 antibody or isotype control. The level of fluorescence on the cell surface was measured by flow cytometry. […]

Human CXCR2 = molecular target: T2, Human CXCR2; assay: Tango CXCR2-bla U2OS cell-based β-arrestin recruitment assay; set-up: The beta-arrestin/TEV protease fusion and the beta-lactamase reporter are separate parts of the cell line
Text: Cells were thawed, propagated, cultured and frozen according to the manufacturer's directions.
Preparation of Tango™ CXCR2-bla U2OS cells for use in cell-based assays: The manufacturer's protocol was altered to make use of 96-well plates instead of 384-well plates. Briefly, dividing cells were harvested one day prior to use. Cells were harvested and resuspended in assay medium (100% FreeStyle™ Expression Medium; Life Technologies; Cat #12338-018) at a viable cell density of 312,500 cells/mL. 128 μL of cell suspension was added per well in 96-well black-walled, clear bottom tissue culture-treated plates. Cells were incubated for 16-20 hrs at 37° C. in an atmosphere of 5% CO2 prior to use in assays.
Tango™ assay procedure: Assays were set up and run as described in the manufacturer's protocol. For antagonist assays, agonists were used at concentrations in the EC50-EC80 range. Assays were read using a FlexStation® 3 (Molecular Devices) fluorescence plate reader configured with the parameters given in Table 4. The blue/green emission ratio for each well was calculated by dividing the blue emission values by the green emission values. All inhibition curves were fitted using a four-parameter dose-response using GraphPad Prism™ (Version 7.01).
The Human CXCR2 Tango™ cell line was used to assess the ability of antibody BKO-4A8-101c to inhibit β-arrestin recruitment to agonist-activated CXCR2. All human ELR+ chemokine CXCR2 ligands were tested in antagonist dose response assays using calculated EC50 values of agonist.
The commercially available reporter cell line Tango™ CXCR2-bla U2OS (ThermoFisher Scientific) was used to assess the ability of the anti-CXCR2 antibodies to inhibit β-arrestin recruitment to agonist-activated CXCR2. Agonists were provided at their assay EC50 concentration for antagonist assays.

| Molecule | binding to native human CXCR2 on human PBMCs / neutrophils ([1]; FIG. 2, MFI) | potency of inhibition of CXCL1-mediated activation of CXCR2, ranking (Human CXCR2; agonist CXCL1, BKO-4A8, BKO-8G3_b, BKO-9C3_a compared) | IC50 (Human CXCR2; agonist CXCL1, combinatorial variants, read-out: CXCL1 IC50) [nM] | IC50 (Human CXCR2; agonist CXCL1, point variants, read-out: Tango Assay IC50 (nM) CXCL1) [nM] | IC50 (Human CXCR2; read-out: CXCL8 IC50, agonist CXCL8, combinatorial variants) [nM] | IC50 (Human CXCR2; read-out: Tango Assay IC50 (nM) CXCL8, agonist CXCL8, point variants) [nM] | binding to neutrophils and monocytes from human blood ([1]; APC conjugate, 2 μg/mL) | fold more potent than comparator CXCR2 antagonist antibodies or small molecules (Human CXCR2; CXCL1- or CXCL5-mediated β-arrestin activation, based on IC50 values) | CXCL1 Maximal Inhibition % (Human CXCR2; CXCL1 at EC50, comparison with comparators) [%] | potency compared to the parental antibody (Human CXCR2; CXCL1 or CXCL8 as agonist) | CXCL5 Maximal Inhibition % (Human CXCR2; CXCL5 at EC50, comparison with comparators) [%] | partial inhibition of CXCL8-induced β-arrestin recruitment (range) (Human CXCR2; CXCL8) | CXCL8 Maximal Inhibition % (Human CXCR2; CXCL8 at EC50, comparison with comparators) [%] | Maximal Inhibition % Mean (Human CXCR2; Hu CXCL1) [%] | Maximal Inhibition % Mean (Human CXCR2; Hu CXCL2) [%] | Maximal Inhibition % Mean (Human CXCR2; Hu CXCL3) [%] | Maximal Inhibition % Mean (Human CXCR2; Hu CXCL5) [%] | Maximal Inhibition % Mean (Human CXCR2; Hu CXCL6) [%] | Maximal Inhibition % Mean (Human CXCR2; Hu CXCL7) [%] | Maximal Inhibition % Mean (Human CXCR2; Hu CXCL8) [%] |
| --- | --- | --- | --- | --- | --- | --- | --- | --- | --- | --- | --- | --- | --- | --- | --- | --- | --- | --- | --- | --- |
| B1 | high binding activity | consistently the most potent | 94 | 0.177 | 0.66 | 0.112 |  |  |  |  |  |  |  |  |  |  |  |  |  |  |
| B2 |  |  |  |  |  |  | bound neutrophils (FIG. 12A) and monocytes (FIG. 12B) | 2- to 39 fold | 97 | improved potency | 98 | 70-80% | 78 | 98 | 100 | 96 | 98 | 98 | 76 | 78 |
